Data taken from patent publication US20140087995A1 (published 2014).
Values belong to the binder of their own block, whether it stands above or below them. Numbered stars: 1 amine (or outer) side, 2 acyl side, 3 side chain; on linkers, the order of the positions; unused ones are H or OH. Bridge positions count the residues as written; N and C are the ends. * marks the point of attachment. C20 diacid = O=C(O)CCCCCCCCCCCCCCCCCCC(=O)*; γGlu = O=C(O)[C@H](CCC(=O)[*:2])N[*:1]

Columns and labels:
[1] = biological target: T1, human calcitonin receptor (human, UniProt P30988 25-474); experiment: ratio IC50 hCTR / IC50 hAmylin-R of the two SPA competition assays; reference: human amylin receptor
T1 construct: whole, on cells; Assay used cell membranes of the transfected BHK cells; also called hCTR; hCT
T1 sequence (looked up): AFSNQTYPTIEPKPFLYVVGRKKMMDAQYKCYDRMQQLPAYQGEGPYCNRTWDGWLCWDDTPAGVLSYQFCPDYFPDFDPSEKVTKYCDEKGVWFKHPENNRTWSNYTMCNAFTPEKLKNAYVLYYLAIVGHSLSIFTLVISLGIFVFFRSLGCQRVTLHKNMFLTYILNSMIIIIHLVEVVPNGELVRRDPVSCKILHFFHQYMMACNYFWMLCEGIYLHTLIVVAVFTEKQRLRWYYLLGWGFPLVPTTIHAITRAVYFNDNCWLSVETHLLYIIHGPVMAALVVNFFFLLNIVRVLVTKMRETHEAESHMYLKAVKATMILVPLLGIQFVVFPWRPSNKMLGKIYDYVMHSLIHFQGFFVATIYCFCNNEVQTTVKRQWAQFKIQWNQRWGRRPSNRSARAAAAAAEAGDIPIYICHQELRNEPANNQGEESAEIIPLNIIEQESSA
Experimental: The resulting pellet was resuspended, homogenized and centrifuged (20.000 rpm, 15 min) in a buffer containing 20 mM Na-HEPES and 0.1 mM EDTA (pH 7.4, buffer 2). The resulting pellet was resuspended in buffer 2 and protein concentration was measured (BCA protein Assay, Pierce). The homogenate was kept cold during the whole procedure. The membranes were kept at −80° C. until use. The assay was performed in a 384 well Optiplate (PerkinElmer) in a total volume of 40 ul. Membranes were mixed with SPA beads. Final concentration of membranes 35 ng/μL final and SPA beads was 0.05 mg/well. Test-compounds were dissolved in DMSO and further diluted in assay buffer (50 mM Hepes, pH 7.4, 1 mM CaCl2, 5 mM MgCl₂, 0.1% OA and 0.02% Tween20). […] The final mixture was incubated with shaking at 400 rpm for 120 min at 25° C. prior to centrifugation (1500 rpm, 10 min). Samples were analyzed on TopCounter™ (Packard). The IC₅₀ was calculated using (one site binding competition analysis) GraphPad Prism5 as a measure of receptor affinity.
Membranes were prepared in the following way; the cells were rinsed with PBS and incubated with Versene for approximately 5 min before harvesting. The cells were flushed with PBS and the cell-suspension was centrifuged for 5 min at 1000 rpm. Cells were homogenized (Ultrathurrax) in a buffer containing 20 mM Na-HEPES and 10 mM EDTA (pH 7.4) and centrifuged at 20.000 rpm for 15 min. The resulting pellet was resuspended, homogenized and centrifuged (20.000 rpm, 15 min) in a buffer containing 20 mM Na-HEPES and 0.1 mM EDTA (pH 7.4, buffer 2). The resulting pellet was resuspended in buffer 2 and protein concentration was measured (BCA protein Assay, Pierce). The homogenate was kept cold during the whole procedure. The membranes were kept at −80° C. until use. Assay was performed in a 384 well Optiplate (PerkinElmer) in a total volume of 40 ul. Membranes were mixed with SPA beads.

[2] = biological target: T1, human calcitonin receptor; experiment: SPA radioligand competition (125I-calcitonin), membranes of BHK cells with human calcitonin receptor
Outline: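 BHK hCTR membranes 35 ng/μL + SPA beads 0.05 mg/well; buffer 50 mM Hepes pH 7.4, 1 mM CaCl2, 5 mM MgCl₂, 0.1% OA, 0.02% Tween20. 120 min, 25° C., shaking. Scintillation count; IC50 by one-site binding competition.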

B2: N^α1-[(4S)-4-carboxy-4-(19-carboxynonadecanoylamino)butanoyl]-[Glu14,Arg17,Pro21,Pro27,Pro31]-h-amylin (peptide)
peptide: {C20 diacid-γGlu}-KCNTATCATQRLAEFLRHSSPNFGAIPSSTPVGSNTY-NH2
modifications: disulfide 2-7
SMILES: CC[C@H](C)[C@H](NC(=O)[C@H](C)NC(=O)CNC(=O)[C@H](Cc1ccccc1)NC(=O)[C@H](CC(N)=O)NC(=O)[C@@H]1CCCN1C(=O)[C@H](CO)NC(=O)[C@H](CO)NC(=O)[C@H](Cc1c[nH]cn1)NC(=O)[C@H](CCCNC(=N)N)NC(=O)[C@H](CC(C)C)NC(=O)[C@H](Cc1ccccc1)NC(=O)[C@H](CCC(=O)O)NC(=O)[C@H](C)NC(=O)[C@H](CC(C)C)NC(=O)[C@H](CCCNC(=N)N)NC(=O)[C@H](CCC(N)=O)NC(=O)[C@@H](NC(=O)[C@H](C)NC(=O)[C@@H]1CSSC[C@H](NC(=O)[C@H](CCCCN)NC(=O)CC[C@H](NC(=O)CCCCCCCCCCCCCCCCCCC(=O)O)C(=O)O)C(=O)N[C@@H](CC(N)=O)C(=O)N[C@@H]([C@@H](C)O)C(=O)N[C@@H](C)C(=O)N[C@@H]([C@@H](C)O)C(=O)N1)[C@@H](C)O)C(=O)N1CCC[C@H]1C(=O)N[C@@H](CO)C(=O)N[C@@H](CO)C(=O)N[C@H](C(=O)N1CCC[C@H]1C(=O)N[C@H](C(=O)NCC(=O)N[C@@H](CO)C(=O)N[C@@H](CC(N)=O)C(=O)N[C@H](C(=O)N[C@@H](Cc1ccc(O)cc1)C(N)=O)[C@@H](C)O)C(C)C)[C@@H](C)O
notes: Synthetic analogue; also called compound 31
- Ratio hCT/hAmylin binding [1]: 16
- IC50 [2]: 3.26 nM

B4: N^α1-[(4S)-4-carboxy-4-(19-carboxynonadecanoylamino)butanoyl]-[Glu14,Arg17,Pro21,Pro27,Arg35]-h-amylin (peptide)
peptide: {C20 diacid-γGlu}-KCNTATCATQRLAEFLRHSSPNFGAIPSSTNVGSRTY-NH2
modifications: disulfide 2-7
SMILES: CC[C@H](C)[C@H](NC(=O)[C@H](C)NC(=O)CNC(=O)[C@H](Cc1ccccc1)NC(=O)[C@H](CC(N)=O)NC(=O)[C@@H]1CCCN1C(=O)[C@H](CO)NC(=O)[C@H](CO)NC(=O)[C@H](Cc1c[nH]cn1)NC(=O)[C@H](CCCNC(=N)N)NC(=O)[C@H](CC(C)C)NC(=O)[C@H](Cc1ccccc1)NC(=O)[C@H](CCC(=O)O)NC(=O)[C@H](C)NC(=O)[C@H](CC(C)C)NC(=O)[C@H](CCCNC(=N)N)NC(=O)[C@H](CCC(N)=O)NC(=O)[C@@H](NC(=O)[C@H](C)NC(=O)[C@@H]1CSSC[C@H](NC(=O)[C@H](CCCCN)NC(=O)CC[C@H](NC(=O)CCCCCCCCCCCCCCCCCCC(=O)O)C(=O)O)C(=O)N[C@@H](CC(N)=O)C(=O)N[C@@H]([C@@H](C)O)C(=O)N[C@@H](C)C(=O)N[C@@H]([C@@H](C)O)C(=O)N1)[C@@H](C)O)C(=O)N1CCC[C@H]1C(=O)N[C@@H](CO)C(=O)N[C@@H](CO)C(=O)N[C@H](C(=O)N[C@@H](CC(N)=O)C(=O)N[C@H](C(=O)NCC(=O)N[C@@H](CO)C(=O)N[C@@H](CCCNC(=N)N)C(=O)N[C@H](C(=O)N[C@@H](Cc1ccc(O)cc1)C(N)=O)[C@@H](C)O)C(C)C)[C@@H](C)O
notes: Synthetic analogue; also called compound 16
- Ratio hCT/hAmylin binding [1]: 19.1
- IC50 [2]: 17.1 nM

B5: N^α1-[(4S)-4-carboxy-4-(19-carboxynonadecanoylamino)butanoyl]-[Glu14,Arg17,Pro21,Pro27,His34]-h-amylin (peptide)
peptide: {C20 diacid-γGlu}-KCNTATCATQRLAEFLRHSSPNFGAIPSSTNVGHNTY-NH2
modifications: disulfide 2-7
SMILES: CC[C@H](C)[C@H](NC(=O)[C@H](C)NC(=O)CNC(=O)[C@H](Cc1ccccc1)NC(=O)[C@H](CC(N)=O)NC(=O)[C@@H]1CCCN1C(=O)[C@H](CO)NC(=O)[C@H](CO)NC(=O)[C@H](Cc1c[nH]cn1)NC(=O)[C@H](CCCNC(=N)N)NC(=O)[C@H](CC(C)C)NC(=O)[C@H](Cc1ccccc1)NC(=O)[C@H](CCC(=O)O)NC(=O)[C@H](C)NC(=O)[C@H](CC(C)C)NC(=O)[C@H](CCCNC(=N)N)NC(=O)[C@H](CCC(N)=O)NC(=O)[C@@H](NC(=O)[C@H](C)NC(=O)[C@@H]1CSSC[C@H](NC(=O)[C@H](CCCCN)NC(=O)CC[C@H](NC(=O)CCCCCCCCCCCCCCCCCCC(=O)O)C(=O)O)C(=O)N[C@@H](CC(N)=O)C(=O)N[C@@H]([C@@H](C)O)C(=O)N[C@@H](C)C(=O)N[C@@H]([C@@H](C)O)C(=O)N1)[C@@H](C)O)C(=O)N1CCC[C@H]1C(=O)N[C@@H](CO)C(=O)N[C@@H](CO)C(=O)N[C@H](C(=O)N[C@@H](CC(N)=O)C(=O)N[C@H](C(=O)NCC(=O)N[C@@H](Cc1c[nH]cn1)C(=O)N[C@@H](CC(N)=O)C(=O)N[C@H](C(=O)N[C@@H](Cc1ccc(O)cc1)C(N)=O)[C@@H](C)O)C(C)C)[C@@H](C)O
notes: Synthetic analogue; also called compound 17
- Ratio hCT/hAmylin binding [1]: 12.5
- IC50 [2]: 10.9 nM

Continued by falling IC50 [2], values first:

- Ratio hCT/hAmylin binding [1]: 16.5
- IC50 [2]: 11.1 nM
B1: N^α1-[(4S)-4-carboxy-4-(19-carboxynonadecanoylamino)butanoyl]-[Glu14,Arg17,Pro21,Pro26]-h-amylin (peptide)
peptide: {C20 diacid-γGlu}-KCNTATCATQRLAEFLRHSSPNFGAPLSSTNVGSNTY-NH2
modifications: disulfide 2-7
SMILES: CC(C)C[C@H](NC(=O)[C@H](CCCNC(=N)N)NC(=O)[C@H](CCC(N)=O)NC(=O)[C@@H](NC(=O)[C@H](C)NC(=O)[C@@H]1CSSC[C@H](NC(=O)[C@H](CCCCN)NC(=O)CC[C@H](NC(=O)CCCCCCCCCCCCCCCCCCC(=O)O)C(=O)O)C(=O)N[C@@H](CC(N)=O)C(=O)N[C@@H]([C@@H](C)O)C(=O)N[C@@H](C)C(=O)N[C@@H]([C@@H](C)O)C(=O)N1)[C@@H](C)O)C(=O)N[C@@H](C)C(=O)N[C@@H](CCC(=O)O)C(=O)N[C@@H](Cc1ccccc1)C(=O)N[C@@H](CC(C)C)C(=O)N[C@@H](CCCNC(=N)N)C(=O)N[C@@H](Cc1c[nH]cn1)C(=O)N[C@@H](CO)C(=O)N[C@@H](CO)C(=O)N1CCC[C@H]1C(=O)N[C@@H](CC(N)=O)C(=O)N[C@@H](Cc1ccccc1)C(=O)NCC(=O)N[C@@H](C)C(=O)N1CCC[C@H]1C(=O)N[C@@H](CC(C)C)C(=O)N[C@@H](CO)C(=O)N[C@@H](CO)C(=O)N[C@H](C(=O)N[C@@H](CC(N)=O)C(=O)N[C@H](C(=O)NCC(=O)N[C@@H](CO)C(=O)N[C@@H](CC(N)=O)C(=O)N[C@H](C(=O)N[C@@H](Cc1ccc(O)cc1)C(N)=O)[C@@H](C)O)C(C)C)[C@@H](C)O
notes: Synthetic analogue; also called compound 7

- Ratio hCT/hAmylin binding [1]: 10.9
- IC50 [2]: 1.09 nM
B3: N^α1-[(4S)-4-carboxy-4-(19-carboxynonadecanoylamino)butanoyl]-[Glu14,Arg17,Pro21,Pro27,Pro34]-h-amylin (peptide)
peptide: {C20 diacid-γGlu}-KCNTATCATQRLAEFLRHSSPNFGAIPSSTNVGPNTY-NH2
modifications: disulfide 2-7
SMILES: CC[C@H](C)[C@H](NC(=O)[C@H](C)NC(=O)CNC(=O)[C@H](Cc1ccccc1)NC(=O)[C@H](CC(N)=O)NC(=O)[C@@H]1CCCN1C(=O)[C@H](CO)NC(=O)[C@H](CO)NC(=O)[C@H](Cc1c[nH]cn1)NC(=O)[C@H](CCCNC(=N)N)NC(=O)[C@H](CC(C)C)NC(=O)[C@H](Cc1ccccc1)NC(=O)[C@H](CCC(=O)O)NC(=O)[C@H](C)NC(=O)[C@H](CC(C)C)NC(=O)[C@H](CCCNC(=N)N)NC(=O)[C@H](CCC(N)=O)NC(=O)[C@@H](NC(=O)[C@H](C)NC(=O)[C@@H]1CSSC[C@H](NC(=O)[C@H](CCCCN)NC(=O)CC[C@H](NC(=O)CCCCCCCCCCCCCCCCCCC(=O)O)C(=O)O)C(=O)N[C@@H](CC(N)=O)C(=O)N[C@@H]([C@@H](C)O)C(=O)N[C@@H](C)C(=O)N[C@@H]([C@@H](C)O)C(=O)N1)[C@@H](C)O)C(=O)N1CCC[C@H]1C(=O)N[C@@H](CO)C(=O)N[C@@H](CO)C(=O)N[C@H](C(=O)N[C@@H](CC(N)=O)C(=O)N[C@H](C(=O)NCC(=O)N1CCC[C@H]1C(=O)N[C@@H](CC(N)=O)C(=O)N[C@H](C(=O)N[C@@H](Cc1ccc(O)cc1)C(N)=O)[C@@H](C)O)C(C)C)[C@@H](C)O
notes: Synthetic analogue; also called compound 32
